Target: T1, EGFR蛋白 (UniProt P00533 25-645, limits assumed)
T1 construct: The construct is not described; also called 表皮生长因子受体
Assay: affinity constant; method not stated

B1: EGFR ScFv (抗EGFR单链抗体) (scFv)
scFv: QVQLQQWGGGVVQPGRSLRLSCAASGFTFSSYAMHWVRQAPGKGLEWVAVISYDGSNKYYADSVKGRFTISRDNSKNTLYLQMDSLRAEDTAVYYCARSGRYFDWLLPFDYGGGGSGGGGSELALTQPPSASVAPGKTARITCGGNNIGSKSVHWYQQKPGQAPVLVIYYDSDRPSGIPERFSGSNSGNTATLTISRVEAGDEADYYCQVWDSSSDQGVFGGGTQLTVL
notes: Human scFv from a phage library, expressed in E. coli; also called 抗EGFR ScFv
Kd: 0.284 nM

— patent CN108059681A (BEIJING GEGEN BIOTECHNOLOGY CO LTD; YICON BEIJING MEDICAL …, dated 2018)
